Patent publication US20180224449A1

Assays:
[1] = target: biotinylated Opr86 extracellular loop synthetic peptide; assay: solution biopanning on biotinylated Opr86 loop peptide in Bushnell-Haas pH 8.5 with 1% Jet-A, three rounds; share of clones
[2] = target: biotinylated OprF1 synthetic peptide (P. aeruginosa); assay: pooled monoclonal phages pulled down on biotinylated OprF1 in Bushnell-Haas with 1% Jet-A; unamplified eluate, share of 30 sequenced clones

| Substance | % Abundance [1] | relative percent abundance [2] |
| --- | --- | --- |
| M13 phage displaying OPP1 (PRIRKSH) (peptide) | 3% |  |
| M13 phage displaying OPP6 (RKKSRIR) (peptide) | 2% |  |
| M13 phage displaying OPP3 (LPSTIHR) (peptide) | 2% |  |
| M13 phage displaying the PPKINIM peptide |  | 3% |
| M13 phage displaying OPP2 (MHNLNLL) (peptide) | 2% |  |
| M13 phage displaying OPP5 (IITMKRR) (peptide) | 3% |  |
| M13 phage displaying OPP4 (LRPLMNR) (peptide) | 3% |  |
